Experimental data: patent publication US20120294822A1 (ALDERBIO, published 2012)

T1: Homo sapiens CGRP-alpha (Calcitonin Gene Related Peptide alpha) (Homo sapiens, -NH2 at the C-terminal end as printed ('wherein the N-terminal phenylalanine is amidated'); 125I radiolabeled in the receptor binding assay of Example 6)
T1 construct: 37-residue synthetic peptide from American Peptides / Bachem; Coated directly on the plate in the ELISA of recombinant antibodies; also called CGRPα; human CGRPα
T1 peptide: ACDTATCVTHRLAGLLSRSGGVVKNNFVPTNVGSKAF


Biological target: T1, Homo sapiens CGRP-alpha (Calcitonin …)
Test: ELISA, CGRPα coated on plate, anti-human IgG Fc-HRP detection
Experimental: To characterize recombinant expressed antibodies for their ability to bind to human-CGRPα antibody-containing solutions were tested by ELISA. All incubations were done at room temperature. Briefly, Immulon IV plagtes (Thermo Scientific), were coated with a CGRPα containing solution (1 ut/mL in PBS) for 2 hours. CGRPα-coated plates were then washed three times in wash buffer (PBS, 0.05% Tween-20). The plates were then blocked using a blocking solution (PBS, 0.5% fish skin gelatin, 0.05% Tween-20) for approximately one hour. The blocking solution was then removed and the plates were then incubated with a dilution series of the antibody being tested for approximately one hour. At the end of this incubation, the plate was washed three times with wash buffer and further incubated with a secondary antibody containing solution (Peroxidase conjugated affinipure F(ab′)2 fragment goat anti-human IgG, Fc fragment specific (Jackson Immunoresearch) for approximately 45 minutes and washed three times. At that point a substrate solution (TMB peroxidase substrate, BioFx) and incubated for 3 to 5 minutes in the dark. The reaction was stopped by addition of a HCl containing solution (0.5M) and the plate was read at 450 nm in a plate-reader.

binding result | Binder
binds | Antibody Ab1 (antibody, human IgG1, kappa, N297A, V domains shown, Chimeric (rabbit variable, human gamma-1/kappa constant) full-length anti-CGRP antibody) VH: QSLEESGGRLVTPGTPLTLTCTVSGLDLSSYYMQWVRQAPGKGLEWIGVIGINDNTYYASWAKGRFTISRASSTTVDLKMTSLTTEDTATYFCARGDIWGPGTLVTVSS VL: QVLTQTASPVSAAVGSTVTINCQASQSVYDNNYLAWYQQKPGQPPKQLIYSTSTLASGVSSRFKGSGSGTQFTLTISDLECADAATYYCLGSYDCSSGDCFVFGGGTEVVVKR
binds | Antibody Ab9 (antibody, human IgG1, kappa, N297A, V domains shown, Chimeric full-length anti-CGRP antibody) VH: QSLEESGGRLVTPGTPLTLTCTVSGIGLSSYYMQWVRQSPGRGLEWIGVIGSDGKTYYATWAKGRFTISKTSSTTVDLRMASLTTEDTATYFCTRGDIWGPGTLVTVSS VL: QVLTQTPSPVSAAVGSTVTINCQASQNVYNNNYLAWYQQKPGQPPKQLIYSTSTLASGVSSRFRGSGSGTQFTLTISDVQCDDAATYYCLGSYDCSRGDCFVFGGGTEVVVKR
binds | Antibody Ab10 (antibody, human IgG1, kappa, N297A, Humanized full-length anti-CGRP antibody) heavy: not shown light: QVLTQSPSSLSASVGDRVTINCQASQNVYNNNYLAWYQQKPGKVPKQLIYSTSTLASGVPSRFSGSGSGTDFTLTISSLQPEDVATYYCLGSYDCSRGDCFVFGGGTKVEIKRTVAAPSVFIFPPSDEQLKSGTASVVCLLNNFYPREAKVQWKVDNALQSGNSQESVTEQDSKDSTYSLSSTLTLSKADYEKHKVYACEVTHQGLSSPVTKSFNRGEC
binds | Antibody Ab3 (antibody, human IgG1, kappa, N297A) heavy: not shown light: QVLTQSPSSLSASVGDRVTINCQASQSVYDNNYLAWYQQKPGKVPKQLIYSTSTLASGVPSRFSGSGSGTDFTLTISSLQPEDVATYYCLGSYDCSSGDCFVFGGGTKVEIKRTVAAPSVFIFPPSDEQLKSGTASVVCLLNNFYPREAKVQWKVDNALQSGNSQESVTEQDSKDSTYSLSSTLTLSKADYEKHKVYACEVTHQGLSSPVTKSFNRGEC
binds | Antibody Ab12 (antibody, human IgG1, kappa, N297A, V domains shown, Humanized full-length anti-CGRP antibody) VH: EVQLVESGGGLVQPGGSLRLSCAVSGIDVTNYYMQWVRQAPGKGLEWVGVIGVNGKRYYASWAKGRFTISRDNSKTTVYLQMNSLRAEDTAVYFCARGDIWGQGTLVTVSS VL: QVLTQSPSSLSASVGDRVTINCRASQSVYYNNYLAWYQQKPGKVPKQLIYSTSTLASGVPSRFSGSGSGTDFTLTISSLQPEDVATYYCLGSYDCSNGDCFVFGGGTKVEIKR

The next lines start with the binder.

Binder | binding result
Antibody Ab11 (antibody, human IgG1, kappa, N297A, V domains shown, Chimeric full-length anti-CGRP antibody; also called Abll) VH: QSLEESGGRLVTPGGSLTLTCTVSGIDVTNYYMQWVRQAPGKGLEWIGVIGVNGKRYYASWAKGRFTISKTSSTTVDLKMTSLTTEDTATYFCARGDIWGPGTLVTVSS VL: QVLTQTASPVSPAVGSTVTINCRASQSVYYNNYLAWYQQKPGQPPKQLIYSTSTLASGVSSRFKGSGSGTQFTLTISDVQCDDAATYYCLGSYDCSNGDCFVFGGGTEVVVKR | binds
Antibody Ab4 (antibody, human IgG1, kappa, N297A, V domains shown) VH: QSLEESGGRLVTPGTPLTLTCSVSGIDLSGYYMNWVRQAPGKGLEWIGVIGINGATYYASWAKGRFTISKTSSTTVDLKMTSLTTEDTATYFCARGDIWGPGTLVTVSS VL: QVLTQTPSPVSAAVGSTVTINCQASQSVYHNTYLAWYQQKPGQPPKQLIYDASTLASGVPSRFSGSGSGTQFTLTISGVQCNDAAAYYCLGSYDCTNGDCFVFGGGTEVVVKR | binds
Antibody Ab7 (antibody, human IgG1, kappa, N297A, V domains shown, Chimeric full-length anti-CGRP antibody) VH: QEQLKESGGRLVTPGTSLTLTCTVSGIDLSNHYMQWVRQAPGKGLEWIGVVGINGRTYYASWAKGRFTISRTSSTTVDLKMTRLTTEDTATYFCARGDIWGPGTLVTVSS VL: QVLTQTASPVSAAVGSTVTINCQASQSVYNYNYLAWYQQKPGQPPKQLIYSTSTLASGVSSRFKGSGSGTQFTLTISDVQCDDAATYYCLGSYDCSTGDCFVFGGGTEVVVKR | binds
Antibody Ab2 (antibody, human IgG1, kappa, N297A, Humanized full-length anti-CGRP antibody) heavy: not shown light: QVLTQSPSSLSASVGDRVTINCQASQSVYDNNYLAWYQQKPGKVPKQLIYSTSTLASGVPSRFSGSGSGTDFTLTISSLQPEDVATYYCLGSYDCSSGDCFVFGGGTKVEIKRTVAAPSVFIFPPSDEQLKSGTASVVCLLNNFYPREAKVQWKVDNALQSGNSQESVTEQDSKDSTYSLSSTLTLSKADYEKHKVYACEVTHQGLSSPVTKSFNRGEC | binds
Antibody Ab5 (antibody, human IgG1, kappa, N297A) heavy: not shown light: QVLTQSPSSLSASVGDRVTINCQASQSVYHNTYLAWYQQKPGKVPKQLIYDASTLASGVPSRFSGSGSGTDFTLTISSLQPEDVATYYCLGSYDCTNGDCFVFGGGTKVEIKRTVAAPSVFIFPPSDEQLKSGTASVVCLLNNFYPREAKVQWKVDNALQSGNSQESVTEQDSKDSTYSLSSTLTLSKADYEKHKVYACEVTHQGLSSPVTKSFNRGEC | binds
Antibody Ab14 (antibody, human IgG1, kappa, N297A, Humanized full-length anti-CGRP antibody) heavy: not shown light: QVLTQSPSSLSASVGDRVTINCQASQNVYNNNYLAWYQQKPGKVPKQLIYSTSTLASGVPSRFSGSGSGTDFTLTISSLQPEDVATYYCLGSYDCSRGDCFVFGGGTKVEIKRTVAAPSVFIFPPSDEQLKSGTASVVCLLNNFYPREAKVQWKVDNALQSGNSQESVTEQDSKDSTYSLSSTLTLSKADYEKHKVYACEVTHQGLSSPVTKSFNRGEC | binds
Antibody Ab6 (antibody, human IgG1, kappa, N297A, Humanized full-length anti-CGRP antibody) heavy: not shown light: QVLTQSPSSLSASVGDRVTINCQASQSVYHNTYLAWYQQKPGKVPKQLIYDASTLASGVPSRFSGSGSGTDFTLTISSLQPEDVATYYCLGSYDCTNGDCFVFGGGTKVEIKRTVAAPSVFIFPPSDEQLKSGTASVVCLLNNFYPREAKVQWKVDNALQSGNSQESVTEQDSKDSTYSLSSTLTLSKADYEKHKVYACEVTHQGLSSPVTKSFNRGEC | binds
Antibody Ab8 (antibody, human IgG1, kappa, N297A, V domains shown, Humanized full-length anti-CGRP antibody) VH: EVQLVESGGGLVQPGGSLRLSCAVSGIDLSNHYMQWVRQAPGKGLEWVGVVGINGRTYYASWAKGRFTISRDNSKTTVYLQMNSLRAEDTAVYFCARGDIWGQGTLVTVSS VL: QVLTQSPSSLSASVGDRVTINCQASQSVYNYNYLAWYQQKPGKVPKQLIYSTSTLASGVPSRFSGSGSGTDFTLTISSLQPEDVATYYCLGSYDCSTGDCFVFGGGTKVEIKR | binds
